The results in this text go back to article PMC12824264, “Endoglin as a BMP9 Co-Receptor in Vascular Endothelial Cells: Prodomain Displacement and TGFBRII Recruitment” (Nature communications, 2025).

The labels stand for the following.
B1: BMP9 growth factor domain (GFD) dimer (ligand, human, UniProt Q9UK05 320-429, looked up)
chain: SAGAGSHCQKTSLRVNFEDIGWDSWIIAPKEYEAYECKGGCFFPLADDVTPTKHAIVQTLVHLKFPTKVGKACCVPTKLSPISVLYKDDMGVPTLKYHYEGMSVAECGCR
notes: growth factor domain (GFD) of BMP9, the cut product of the proprotein; also called BMP9 GFD; source: bought: R&D Systems (BMP9 GFD); in the prodomain displacement assays released from pro:BMP9 made in HEK EBNA, purified
B2: BMP10 growth factor domain (GFD) dimer (ligand, human, UniProt O95393 317-424, looked up)
chain: NAKGNYCKRTPLYIDFKEIGWDSWIIAPPGYEAYECRGVCNYPLAEHLTPTKHAIIQALVHLKNSQKASKACCVPTKLEPISILYLDKGVVTYKFKYEGMAVSECGCR
notes: growth factor domain (GFD) of BMP10, the cut product of the proprotein; One molecule is used for the bought GFD and for the GFD freed from pro:BMP10; also called BMP10 GFD; source: bought: R&D Systems (BMP10 GFD); in the prodomain displacement assays released from pro:BMP10 made in HEK EBNA (FURIN co-transfected), purified
B3: monomeric soluble endoglin (full-length ENG extracellular domain), sENG(M) (domain or fragment, human, UniProt P17813 26-586, looked up)
chain: ETVHCDLQPVGPERGEVTYTTSQVSKGCVAQAPNAILEVHVLFLEFPTGPSQLELTLQASKQNGTWPREVLLVLSVNSSVFLHLQALGIPLHLAYNSSLVTFQEPPGVNTTELPSFPKTQILEWAAERGPITSAAELNDPQSILLRLGQAQGSLSFCMLEASQDMGRTLEWRPRTPALVRGCHLEGVAGHKEAHILRVLPGHSAGPRTVTVKVELSCAPGDLDAVLILQGPPYVSWLIDANHNMQIWTTGEYSFKIFPEKNIRGFKLPDTPQGLLGEARMLNASIVASFVELPLASIVSLHASSCGGRLQTSPAPIQTTPPKDTCSPELLMSLIQTKCADDAMTLVLKKELVAHLKCTITGLTFWDPSCEAEDRGDKFVLRSAYSSCGMQVSASMISNEAVVNILSSSSPQRKKVHCLNMDSLSFQLGLYLSPHFLQASNTIEPGQQSFVQVRVSPSVSEFLLQLDSCHLDLGPEGGTVELIQGRAAKGNCVSLLSPSPEGDPRFSFLLHFYTVPIPKTGTLSCTVALRPKTGSQDQEVHRTVFMRLNIISPDLSGCTSKG
notes: signal peptide in the construct; Expressed as a mixture of dimer and monomer; also called monomeric sENG; sENG-His; source: HEK EBNA, transfected (pCEP4), purified from conditioned medium (HisTrap excel, HiTrap Q HP, Superdex 200)
B4: dimeric soluble endoglin (full-length ENG extracellular domain), sENG(D) (domain or fragment, human, UniProt P17813 26-586, looked up)
chain: B3 chain
notes: signal peptide in the construct; Same construct as m1; It stays a dimer on non-reducing SDS-PAGE; also called dimeric sENG; sENG-His; source: HEK EBNA, transfected (pCEP4), purified from conditioned medium (HisTrap excel, HiTrap Q HP, Superdex 200)

Common to all, as to conditions: both partners purified
Assay [1] addresses B3. The experiment in a line: native gel or EMSA; pro:BMP9 or pro:BMP10 pre-mixed with sENG(D), sENG(M), BMPRII ECD or ActRIIB ECD at stated molar ratios (from 0.3:1) in TBS, 8 ul, 30 min at room temperature; 10% native PAGE at 4 C; bands cut out and re-run on non-reducing SDS-PAGE.
In assay [2] the target is B4. The experiment in a line: SEC; S200 10/300 gel filtration; sENG(M) at 6x or sENG(D) at 3x molar excess premixed with pro:BMP9 or pro:BMP10 for 30 min; fractions on non-reducing SDS-PAGE.
Assay [3] concerns the target B4. The experiment in a line: SEC; analytical gel filtration; pro:BMP9 or pro:BMP10 pre-mixed with 0.3-fold sENG(M) or sENG(D). Background: In gel filtration, larger molecules generally elute earlier.
For assay [4], the target named is B3. Described as above.
Assay [5] addresses B2. The experiment in a line: SEC; S200 10/300 gel filtration; sENG(M) at 6x or sENG(D) at 3x molar excess premixed with pro:BMP9 or pro:BMP10 for 30 min; fractions on non-reducing SDS-PAGE.
Assay [6] concerns the target B1. Described as above.
Assay [7] addresses B2. The assay can be described thus: cross-linking; sENG(M) or sENG(D) with BMP9 or BMP10; crosslinker in PBS pH 7.4-8.0, 45 min at room temperature, quenched with 40 mM Tris; non-reducing SDS-PAGE.
Assay [8] concerns the target B1. Described as above.

Turning to B1, the binding result in assay [1] and in assay [2] was “binds” in each case.

For B2, the binding result in assay [3] and in assay [4] was “binds” in each case.

Regarding B3, the “stoichiometry N” value in assay [5] and in assay [6] was 1 sENG(M) per GFD dimer throughout.

As to B4, the “stoichiometry N” value in assay [7] and in assay [8] was 1 sENG(D) per GFD dimer each time.
